These results are taken from patent US20210145976A1 (ARO BIOTHERAPEUTICS, published 2021).

B1: SEQ ID NO 39 (designed binder)
chain: MLPAPKNLVVSRVTEDSARLSWTAPDAAFDSFDIDYREWWTLGEAIVLTVPGSERSYDLTGLKPGTEYYVNIQGVKGGLRSYPLSAIFTT
notes: FN3 domain
B2: SEQ ID NO 49 (designed binder)
chain: B1 chain with D33G, D35S, R37L, T41E, L42D, Y69W, N71S, Q73A, L79K
notes: FN3 domain
B3: SEQ ID NO 52 (designed binder)
chain: B1 chain with D33K, D35S, R37Q, T41E, L42D, Y69W, Q73S, L79V, R80Q
notes: FN3 domain
B4: SEQ ID NO 51 (designed binder)
chain: MLPAPKNLVVSRVTEDSARLSWTAPDAAFDSFFIKYIEWWADGEAIVLTVPGSERSYDLTGLKPGTEYLVEIYGVKGGKWSWPLSAIFTT
notes: FN3 domain
B5: SEQ ID NO 59 (designed binder)
chain: B4 chain with F33T, K35W, I37A, W40E, A41D, D42E, L69R, K79Y, W80P, W82K
notes: FN3 domain
B6: SEQ ID NO 58 (designed binder)
chain: MLPAPKNLVVSRVTEDSARLSWTAPDAAFDSFTIWYAEADGWGEAIVLTVPGSERSYDLTGLKPGTEYFVDIYGVKGGYLSVPLSAIFTT
notes: FN3 domain
B7: SEQ ID NO 44 (designed binder)
chain: MLPAPKNLVVSRVTEDSARLSWTAPDAAFDSFYIEYYESLPDGEAIVLTVPGSERSYDLTGLKPGTEYAVYIYGVKGGYYSRPLSAIFTT
notes: FN3 domain
B8: SEQ ID NO 36 (designed binder)
chain: MLPAPKNLVVSRVTEDSARLSWTAPDAAFDSFTITYIEWWENGEAIALSVPGSERSYDLTGLKPGTEYQVGIAGVKGGYKSYPLWALFTT
notes: FN3 domain
B9: SEQ ID NO 33 (designed binder)
chain: MLPAPKNLVVSRVTEDSARLSWTAPDAAFDSFTIQYEELTTVGEAIYLRVPGSERSYDLTGLKPGTEYVVWIEGVKGGLRSNPLGAAFTT
notes: FN3 domain
B10: SEQ ID NO 50 (designed binder)
chain: MLPAPKNLVVSRVTEDSARLSWTAPDAAFDSFVIEYREGAWYGEAIVLTVPGSERSYDLTGLKPGTEYFVDITGVKGGWWSDPLSAIFTT
notes: FN3 domain
B11: SEQ ID NO 61 (designed binder)
chain: MLPAPKNLVVSRVTEDSARLSWRVESRTFDSFLIQYQESEKVGEAIVLTVPGSERSYDLTGLKPGTEYTVSIYGVVWDTRDNPISNPLSAIFTT
notes: FN3 domain
B12: SEQ ID NO 92 (designed binder)
chain: B1 chain with D33L, D35R, R37W, W40Y, T41V, N71E, Q73S, L79W, R80Q, Y82W
notes: FN3 domain
B13: SEQ ID NO 259 (designed binder)
chain: MLPAPKNLVVSRVTEDSARLSWTAPDAAFDSFTIEYFEFVDAGEAIVLTVPGSERSYDLTGLKPGTEYWVEIWGVKGGSWSKPLSAIFTT
notes: FN3 domain
B14: SEQ ID NO 235 (designed binder)
chain: MLPAPKNLVVSRVTEDSARLSWTAPDAAFDSFSINYREWWSDGEAIYLPVPGSERSYDLTGLKPGTEYAVYIQGVKGGSRSFPLHAWFTT
notes: FN3 domain
B15: SEQ ID NO 134 (designed binder)
chain: B7 chain with Y33W, E35D, S39R, L40K, P41Y, D42V, A69E, Y71T, Y79W, R82D
notes: FN3 domain
B16: SEQ ID NO 238 (designed binder)
chain: MLPAPKNLVVSRVTEDSARLSWTAPDAAFDSFKIFYQEFGGEAIVLTVPGSERSYDLTGLKPGTEYWVDIYGVKGGYTSSPLSAIFTT
notes: FN3 domain
B17: SEQ ID NO 226 (designed binder)
chain: MLPAPKNLVVSRVTEDSARLSWTAPDAAFDSFHIIYEEVLTEGEAIYLRVPGSERSYDLTGLKPGTEYGVTIKGVKGGAYSIPLIATFTT
notes: FN3 domain
B18: SEQ ID NO 302 (designed binder)
chain: MLPAPKNLVVSRVTEDSARLSWTAPDAAFDSFDIYYPEYYDRGEAIVLTVPGSERSYDLTGLKPGTEYTVYIDGVKGGGGSGPLSAIFTT
notes: FN3 domain
B19: SEQ ID NO 62 (designed binder)
chain: MLPAPKNLVVSRVTEDSARLSWTAPDAAFDSFPILYLELNHHGEEIVLTVPGSERSYDLTGLKPGTEYWVYIFGVKGGMYSAPLSAIFTTGG
modifications: VC-MMAF conjugate (site not given)

Positions count from the first letter of the chain named. Some results are limits rather than exact numbers.

T1 sequence (P02786 other isoform, or with tags, fused parts or gaps): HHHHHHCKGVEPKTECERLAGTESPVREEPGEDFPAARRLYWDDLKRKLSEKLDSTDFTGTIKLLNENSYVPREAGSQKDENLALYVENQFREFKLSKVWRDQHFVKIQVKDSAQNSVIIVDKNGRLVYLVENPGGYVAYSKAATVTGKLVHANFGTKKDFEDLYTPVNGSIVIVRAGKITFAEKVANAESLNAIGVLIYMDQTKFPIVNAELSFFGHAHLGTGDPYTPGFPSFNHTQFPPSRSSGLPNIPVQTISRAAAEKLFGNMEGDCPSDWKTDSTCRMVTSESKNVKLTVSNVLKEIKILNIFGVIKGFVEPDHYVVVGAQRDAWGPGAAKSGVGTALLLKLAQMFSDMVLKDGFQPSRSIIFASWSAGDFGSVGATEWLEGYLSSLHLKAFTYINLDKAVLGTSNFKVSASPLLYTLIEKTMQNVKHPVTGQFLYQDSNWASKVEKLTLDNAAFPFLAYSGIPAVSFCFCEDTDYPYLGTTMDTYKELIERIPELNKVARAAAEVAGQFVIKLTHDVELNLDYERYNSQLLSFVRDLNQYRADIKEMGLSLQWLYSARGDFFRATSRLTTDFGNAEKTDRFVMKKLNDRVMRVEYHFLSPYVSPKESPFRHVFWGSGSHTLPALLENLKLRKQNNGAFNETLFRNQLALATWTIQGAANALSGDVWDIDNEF
T2 sequence (P02786 whole entry): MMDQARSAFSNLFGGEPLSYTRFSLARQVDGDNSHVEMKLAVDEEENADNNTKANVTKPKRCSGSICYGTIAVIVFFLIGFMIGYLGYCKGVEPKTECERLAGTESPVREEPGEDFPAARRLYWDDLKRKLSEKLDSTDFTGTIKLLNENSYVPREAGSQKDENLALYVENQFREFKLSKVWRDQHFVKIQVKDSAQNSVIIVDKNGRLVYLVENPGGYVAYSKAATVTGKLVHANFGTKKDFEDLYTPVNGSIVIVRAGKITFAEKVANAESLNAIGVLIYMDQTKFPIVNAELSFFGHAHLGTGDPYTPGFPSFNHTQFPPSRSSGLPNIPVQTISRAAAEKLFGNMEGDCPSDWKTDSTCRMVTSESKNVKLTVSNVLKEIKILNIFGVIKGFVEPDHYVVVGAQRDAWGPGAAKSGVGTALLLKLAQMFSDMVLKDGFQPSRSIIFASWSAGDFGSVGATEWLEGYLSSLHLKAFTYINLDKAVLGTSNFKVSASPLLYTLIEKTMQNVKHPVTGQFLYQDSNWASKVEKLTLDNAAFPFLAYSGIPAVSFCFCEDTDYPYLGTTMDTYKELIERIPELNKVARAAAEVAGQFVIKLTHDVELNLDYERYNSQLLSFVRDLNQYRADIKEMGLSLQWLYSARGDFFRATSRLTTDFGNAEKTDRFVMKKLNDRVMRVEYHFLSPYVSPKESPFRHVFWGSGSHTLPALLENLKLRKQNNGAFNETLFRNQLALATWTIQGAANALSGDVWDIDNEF

One assay has as its target T1, recombinant biotinylated CD71 extracellular domain (Sino Biologics) with an N-terminal 6His tag (human, UniProt P02786 89-760, biotinylated (sites not given)).
T1 construct: extracellular domain; also called hCD71; huCD71
The experiment in a line: screening ELISA. The protocol:
(§1) To screen for FN3 domains that specifically bind CD71, streptavidin-coated Maxisorp plates (Nunc catalog 436110) were blocked for 1 hour in Starting Block T20 (Pierce) and then coated with biotinylated CD71 (using same antigen as in panning) or negative controls (an unrelated Fc-fused recombinant protein and human serum albumin) for 1 hour. Plates were rinsed with TBST and diluted lysate was applied to plates for 1 hour. Following additional rinses, wells were treated with HRP-conjugated anti-V5 tag antibody (Abcam, ab1325), for 1 hour and then assayed with POD (Roche, 11582950001).
On the technique in general: ELISA stands for enzyme-linked immunosorbent assay.
Consider B1, for which the hCD71 was 507000.
Still for that read-out and setting: then B2, with 1.09e+07.
On the same count and under the same terms, then B3, with 1.01e+07; and B4, with 9.71e+06.
On the same count and under the same terms, then B5, with 1.95e+06; and B6, with 302000.
As for B7, the hCD71 stood at 176000.
Still for that read-out and setting: with B8 the figure was 3.3e+06.
The same measure, in the same setting: with B9 the figure was 518000; with B10, 1.08e+07.
The same measure, in the same setting: then B11, with 4.9e+06.

The target of the next assay is T1, recombinant biotinylated CD71 …. The experiment in a line: screening ELISA, ratio.
For the molecule B12, the “hCD71:HSA” value stood at 2960.
The same measure, in the same setting: then B13, with 1160; and B14, with 2910.
Still for that read-out and setting: with B15 the figure was 1580; with B16, 679; with B17, 1520.
Still for that read-out and setting: with B18 the figure was 126.

A further assay addresses T2, CD71 on SK-BR-3 cells (human, UniProt P02786 1-760). The experiment in a line: cell-based or functional assay.
Consider B1, for which the “IC50, SK-BR3 viability, MMAF conjugate, no competitor” value was determined as 1.2 nM and the “IC50, SK-BR3 viability, MMAF conjugate, with 0.6 uM holo-human transferrin” value was 31.1 nM.
In the same order, the values of B19 are above 0.005 nM and 0.6 nM.
Take B9: the “IC50, SK-BR3 viability, MMAF conjugate, no competitor” value turned out to be 4.4 nM and the “IC50, SK-BR3 viability, MMAF conjugate, with 0.6 uM holo-human transferrin” value was around 200 nM.

Another assay concerns the target T1, recombinant biotinylated CD71 …. The experiment in a line: screening ELISA. This is another data set of the same source.
B12: the hCD71 came to 3.85e+06.
Still for that read-out and setting: then B13, with 2.44e+06; and B14, with 3.92e+06; and B15, with 3.08e+06.
On the same count and under the same terms, then B16, with 2.88e+06; and B17, with 4.33e+06; and B18, with 2.67e+06.

The next assay addresses T2, CD71 on SK-BR-3 cells. The experiment in a line: cell-based or functional assay. This is another data set of the same source.
For B1, the “IC50, SKBR-3 cell viability, MMAF conjugate” value (“IC50, SKBR-3 cell viability” for short) amounted to 0.52 nM.
Take B2: the “IC50, SKBR-3 cell viability” value came out at 3 nM.
With B3, the “IC50, SKBR-3 cell viability” value came out at 6.3 nM.
The same measure, in the same setting: then B4, with 4.9 nM; and B5, with 4 nM.
Same read-out and setting: then B6, with 7.7 nM; and B7, with 2.5 nM; and B8, with 7.1 nM.
On the same count and under the same terms, then B9, with 3.27 nM; and B10, with 3.1 nM.
Consider B11, for which the “IC50, SKBR-3 cell viability” value was determined as 1.93 nM.

For a further assay, the target named is T2, CD71 on SK-BR-3 cells. The experiment in a line: cell-based or functional assay. The source holds these as a separate data set.
As to B12, the “IC50, SKBR-3 viability, MMAF conjugate, first unlabelled column (+/- human transferrin)” value came out at 5.49 nM and the “IC50, SKBR-3 viability, MMAF conjugate, second unlabelled column (+/- human transferrin)” value was 1.06 nM.
As to B13, the “IC50, SKBR-3 viability, MMAF conjugate, first unlabelled column (+/- human transferrin)” value came to 27.5 nM.
Take B14: the “IC50, SKBR-3 viability, MMAF conjugate, first unlabelled column (+/- human transferrin)” value came to 1.75 nM and the “IC50, SKBR-3 viability, MMAF conjugate, second unlabelled column (+/- human transferrin)” value is 10.6 nM.
Regarding B15, the “IC50, SKBR-3 viability, MMAF conjugate, first unlabelled column (+/- human transferrin)” value came out at 165 nM and the “IC50, SKBR-3 viability, MMAF conjugate, second unlabelled column (+/- human transferrin)” value is 8.54 nM.
For the molecule B16, the “IC50, SKBR-3 viability, MMAF conjugate, second unlabelled column (+/- human transferrin)” value is 7.23 nM.
Still for that read-out and setting: with B17 the figure was 8.32 nM.
Regarding B18, the “IC50, SKBR-3 viability, MMAF conjugate, first unlabelled column (+/- human transferrin)” value is 164 nM and the “IC50, SKBR-3 viability, MMAF conjugate, second unlabelled column (+/- human transferrin)” value came out at 27.8 nM.

A further assay concerns the target T1, recombinant biotinylated CD71 …. The experiment in a line: screening ELISA, ratio. This is another data set of the same source. The protocol:
as §1
On to B1, for which the huCD71/Fc was 122.
Same read-out and setting: with B2 the figure was 948; with B3, 5750.
In the case of B4, the huCD71/Fc came to 2290.
Still for that read-out and setting: then B5, with 608.
Regarding B6, the huCD71/Fc is 62.9.
The same measure, in the same setting: then B7, with 44.8; and B8, with 535.
The same measure, in the same setting: with B9 the figure was 46.6; with B10, 4490; with B11, 461.
